Source: patent US20210155676A1

The binders below were run against Env of 92 subtype B viruses (assay: cell-based or functional assay).

| Binder | PGT121 IC50/Variant IC50 [fold] | neutralization Coverage (%) | neutralization Median IC95 [µg/mL] |
| --- | --- | --- | --- |
| PGT121.42 hIgG1/hLambda (antibody) heavy: QMQLQESGPGLVKPSETLSLTCSVSGASISDSYWSWIRRSPGKGLEWIGYVHKSGDTNYNPSLKSRVHLSLDTSKNQVSLSLSSVTAADSGKYYCARTLHGRRIYGIVAFNEWFTYFYMDVWGKGTQVTVSSASTKGPSVFPLAPSSKSTSGGTAALGCLVKDYFPEPVTVSWNSGALTSGVHTFPAVLQSSGLYSLSSVVTVPSSSLGTQTYICNVNHKPSNTKVDKKVEPKSCDKTHTCPPCPAPELLAGPDVFLFPPKPKDTLMISRTPEVTCVVVDVSHEDPEVKFNWYVDGVEVHNAKTKPREEQYNSTYRVVSVLTVLHQDWLNGKEYKCKVSNKALPLPEEKTISKAKGQPREPQVYTLPPSREEMTKNQVSLTCLVKGFYPSDIAVEWESNGQPENNYKTTPPVLDSDGSFFLYSKLTVDKSRWQQGNVFSCSVLHEALHSHYTQKSLSLSPGK light: not shown | 1.2 | 63 | 0.277 |
| PGT121.65 hIgG1/hLambda (antibody) heavy: QLQLQESGPGLVKPSETLSLTCSVSGASISDAYWSWIRRSPGKGLEWIGYVHKSGDTNYNPSLKSRVHLSLDTSKNQVSLSLTGVTAADSGKYYCARALHGRRIYGIVAFNEWFTYFYMDVWGTGTQVTVSSASTKGPSVFPLAPSSKSTSGGTAALGCLVKDYFPEPVTVSWNSGALTSGVHTFPAVLQSSGLYSLSSVVTVPSSSLGTQTYICNVNHKPSNTKVDKKVEPKSCDKTHTCPPCPAPELLAGPDVFLFPPKPKDTLMISRTPEVTCVVVDVSHEDPEVKFNWYVDGVEVHNAKTKPREEQYNSTYRVVSVLTVLHQDWLNGKEYKCKVSNKALPLPEEKTISKAKGQPREPQVYTLPPSREEMTKNQVSLTCLVKGFYPSDIAVEWESNGQPENNYKTTPPVLDSDGSFFLYSKLTVDKSRWQQGNVFSCSVLHEALHSHYTQKSLSLSPGK light: SDISVAPGETARISCGEKSLGSRAVQWYQHRAGQAPSLIIYNNQDRPSGIPERFSGSPDSRPGTTATLTITSVEAGDEADYYCHIWDSRVPTKWVFGGGTKLTVLGQPKAAPSVTLFPPSSEELQANKATLVCLISDFYPGAVTVAWKADSSPVKAGVETTTPSKQSNNKYAASSYLSLTPEQWKSHRSYSCQVTHEGSTVEKTVAPTECS | 2 | 59.8 | 0.165 |
| PGT121.60 hIgG1/hLambda (antibody) heavy: QMQLQESGPGLVKPSETLSLTCSVSGASISDSYWSWIRRSPGKGLEWIGYVHKSGDTNYNPSLKSRVHLSLDTSKNQVSLSLTGVTAADSGKYYCARTLHGRRIYGIVAFNEWFTYFYMDVWGTGTQVTVSSASTKGPSVFPLAPSSKSTSGGTAALGCLVKDYFPEPVTVSWNSGALTSGVHTFPAVLQSSGLYSLSSVVTVPSSSLGTQTYICNVNHKPSNTKVDKKVEPKSCDKTHTCPPCPAPELLAGPDVFLFPPKPKDTLMISRTPEVTCVVVDVSHEDPEVKFNWYVDGVEVHNAKTKPREEQYNSTYRVVSVLTVLHQDWLNGKEYKCKVSNKALPLPEEKTISKAKGQPREPQVYTLPPSREEMTKNQVSLTCLVKGFYPSDIAVEWESNGQPENNYKTTPPVLDSDGSFFLYSKLTVDKSRWQQGNVFSCSVLHEALHSHYTQKSLSLSPGK light: not shown | 1.9 | 59.8 | 0.177 |
| PGT121.64 hIgG1/hLambda (antibody) heavy: QLQLQESGPGLVKPSETLSLTCSVSGASISDAYWSWIRRSPGKGLEWIGYVHKSGDTNYNPSLKSRVHLSLDTSKNQVSLSLTGVTAADSGKYYCARALHGRRIYGIVAFNEWFTYFYMDVWGTGTQVTVSSASTKGPSVFPLAPSSKSTSGGTAALGCLVKDYFPEPVTVSWNSGALTSGVHTFPAVLQSSGLYSLSSVVTVPSSSLGTQTYICNVNHKPSNTKVDKKVEPKSCDKTHTCPPCPAPELLAGPDVFLFPPKPKDTLMISRTPEVTCVVVDVSHEDPEVKFNWYVDGVEVHNAKTKPREEQYNSTYRVVSVLTVLHQDWLNGKEYKCKVSNKALPLPEEKTISKAKGQPREPQVYTLPPSREEMTKNQVSLTCLVKGFYPSDIAVEWESNGQPENNYKTTPPVLDSDGSFFLYSKLTVDKSRWQQGNVFSCSVLHEALHSHYTQKSLSLSPGK light: not shown | 2.6 | 59.8 | 0.129 |
| PGT121.56 hIgG1/hLambda (antibody) heavy: QMQLQESGPGLVKPSETLSLTCSVSGASISDSYWSWIRRSPGKGLEWIGYVHKSGDTNYSPSLKSRVNLSLDTSKNQVSLSLVAATAADSGKYYCARTLHGRRIYGIVAFNEWFTYFYMDVWGNGTQVTVSSASTKGPSVFPLAPSSKSTSGGTAALGCLVKDYFPEPVTVSWNSGALTSGVHTFPAVLQSSGLYSLSSVVTVPSSSLGTQTYICNVNHKPSNTKVDKKVEPKSCDKTHTCPPCPAPELLAGPDVFLFPPKPKDTLMISRTPEVTCVVVDVSHEDPEVKFNWYVDGVEVHNAKTKPREEQYNSTYRVVSVLTVLHQDWLNGKEYKCKVSNKALPLPEEKTISKAKGQPREPQVYTLPPSREEMTKNQVSLTCLVKGFYPSDIAVEWESNGQPENNYKTTPPVLDSDGSFFLYSKLTVDKSRWQQGNVFSCSVLHEALHSHYTQKSLSLSPGK light: not shown | – | 62 | 0.265 |
| PGT121.61 hIgG1/hLambda (antibody) heavy: QMQLQESGPGLVKPSETLSLTCSVSGASISDSYWSWIRRSPGKGLEWIGYVHKSGDTNYNPSLKSRVHLSLDTSKNQVSLSLTGVTAADSGKYYCARTLHGRRIYGIVAFNEWFTYFYMDVWGTGTQVTVSSASTKGPSVFPLAPSSKSTSGGTAALGCLVKDYFPEPVTVSWNSGALTSGVHTFPAVLQSSGLYSLSSVVTVPSSSLGTQTYICNVNHKPSNTKVDKKVEPKSCDKTHTCPPCPAPELLAGPDVFLFPPKPKDTLMISRTPEVTCVVVDVSHEDPEVKFNWYVDGVEVHNAKTKPREEQYNSTYRVVSVLTVLHQDWLNGKEYKCKVSNKALPLPEEKTISKAKGQPREPQVYTLPPSREEMTKNQVSLTCLVKGFYPSDIAVEWESNGQPENNYKTTPPVLDSDGSFFLYSKLTVDKSRWQQGNVFSCSVLHEALHSHYTQKSLSLSPGK light: SDISVAPGETARISCGEKSLGSRAVQWYQHRAGQAPSLIIYNNQDRPSGIPERFSGSPDSRPGTTATLTITSVEAGDEADYYCHIWDSRVPTKWVFGGGTKLTVLGQPKAAPSVTLFPPSSEELQANKATLVCLISDFYPGAVTVAWKADSSPVKAGVETTTPSKQSNNKYAASSYLSLTPEQWKSHRSYSCQVTHEGSTVEKTVAPTECS | 1 | 58.7 | 0.327 |
